Test results: publication PMC8632240
pIC50: −log10 of the molar value.

Biological target: human angiotensin-converting enzyme 2 extracellular domain fused to mouse Fc (hACE2-ECD-mFc) (human) (UniProt Q9BYF1)
Experiment: ELISA

Chain of human angiotensin-converting enzyme 2 extracellular domain fused to mouse Fc (hACE2-ECD-mFc) (human) (Q9BYF1 19-617): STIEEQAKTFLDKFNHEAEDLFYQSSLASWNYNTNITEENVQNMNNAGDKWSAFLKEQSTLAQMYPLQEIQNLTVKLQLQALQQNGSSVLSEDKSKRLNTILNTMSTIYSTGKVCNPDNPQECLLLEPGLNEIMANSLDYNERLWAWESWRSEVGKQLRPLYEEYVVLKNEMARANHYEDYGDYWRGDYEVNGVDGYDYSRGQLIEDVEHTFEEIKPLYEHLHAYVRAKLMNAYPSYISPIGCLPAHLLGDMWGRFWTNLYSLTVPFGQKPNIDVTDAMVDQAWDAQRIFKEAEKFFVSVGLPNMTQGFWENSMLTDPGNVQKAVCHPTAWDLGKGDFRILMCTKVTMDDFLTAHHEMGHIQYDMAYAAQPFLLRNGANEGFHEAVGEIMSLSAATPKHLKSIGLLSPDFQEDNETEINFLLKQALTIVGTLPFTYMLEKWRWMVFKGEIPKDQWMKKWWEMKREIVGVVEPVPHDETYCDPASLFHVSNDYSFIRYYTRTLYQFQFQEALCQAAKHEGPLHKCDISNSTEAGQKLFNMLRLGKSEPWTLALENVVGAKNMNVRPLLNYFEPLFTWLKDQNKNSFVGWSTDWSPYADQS

“SARS-CoV-2 S-RBD reference (spike receptor-binding domain, reference type) (from UniProt P0DTC2 319-541) (domain or fragment)” was tested, and the pIC50 was 6.91.
